Data reported in PMC2581630, “S-Nitrosylation of Surfactant Protein-D Controls Inflammatory Function” (PLoS Biology, 2008).

B1: rat recombinant SP-D (surfactant protein D) (natural protein, UniProt P35248 20-374, looked up)
chain: AEMKTLSQRSITNTCTLVLCSPTENGLPGRDGRDGREGPRGEKGDPGLPGPMGLSGLPGPRGPVGPKGENGSAGEPGPKGERGLVGPPGSPGISGPAGKEGPSGKQGNIGPQGKPGPKGEAGPKGEVGAPGMQGSAGAKGPAGPKGERGAPGEQGAPGNAGAAGPAGPAGPQGAPGSRGPPGLKGDRGAPGDRGIKGESGLPDSAALRQQMEALNGKLQRLEAAFSRYKKAALFPDGQSVGDKIFRAANSEEPFEDAKEMCRQAGGQLASPRSATENAAVQQLVTAHSKAAFLSMTDVGTEGKFTYPTGEALVYSNWAPGEPNNNGGAENCVEIFTNGQWNDKACGEQRLVICEF
notes: surfactant protein D (SP-D), rat, recombinant; It has the N-terminal cysteines 15 and 20 and the head domain, so it is probably the whole mature chain; also called rSP-D; RrSP-D; source: recombinant

Columns and labels:
[1] = target: SNO-SP-D in BAL from mice overexpressing SP-D, after treatment with S-nitrosocysteine (not stated (in BAL of SP-D overexpressing mice)) (UniProt P50404); experiment: SEC; BAL from SP-D overexpressing mice with or without SNOC, 0.75 mg total protein in 250 μl; Superdex 200 HR 10/30, 0.3 ml/min, 25 mM HEPES pH 7.25, 150 mM NaCl; fractions analysed by SDS-PAGE and Western blot for SP-D
[2] = target: the molecule itself; experiment: non-reducing SDS-PAGE with Western blot; recombinant proteins denatured without thiol reductant, SDS-PAGE, Western blot with SP-D antibody; shows only oligomers that survive SDS (disulfide-linked)

Molecule	stoichiometry N [1]	stoichiometry N [2]
SNO-SP-D in BAL from mice overexpressing SP-D, after treatment with S-nitrosocysteine (from UniProt P50404 20-374) (natural protein)	3	–
B1	–	3
